The target in the experiment is HLA-A2-negative cells (HL-60, K562, primary AML 120B, normal cells of HLA-A2-negative donors). Nature of the experiment: cell-based or functional assay.

B1: ESK2 caTCR clone #34 (AbTCR), expressed on primary T cells (protein)
VH: QVQLVQSGTEVRKPGASLKVSCTTSGYIFTGYYIHWVRQVPGQGLEWMGWINPNSGVTEFAQGFQGRITMTRDTSTSTVYMELSRLTSDDTAVYYCAREGVWGYYDSWGQGTLVTVSS
VL: SSELTQDPAVSVALGQTVRITCQGDSLRSYYASWYQQKPGQAPVLVIYDKNNRPSGIPDRFSGSSSGNTASLTITGAQAEDEADYYCNSRDSSGNHHVVFGGGTKLTVLG
In turn, B1 returned a Reduction of CD33+ cells (%), AbTCR-CSR #34 T cells (with anti-CD33 CSR), primary AML 120B (HLA-A*02:01 -) of 2.3%.

(Values after patent US20260226173A1, “COMPOSITIONS INCLUDING ANTI-WT-1 ANTIBODIES & ANTIGEN BINDING FRAGMENTS AND USES THEREOF” (Memorial Sloan-Kettering Cancer Center, priority 2023, published 2026).)
